Results on 2 substances are retold here after patent publication US20150147270A1.

For experiment [1], the target named is mouse F4/80 receptor expressed on macrophages (RAW 264.7 cells) (mouse) (UniProt Q61549). The experiment is described as follows: SPR (BI-2000), Fab'-covered NPs on a carboxydextran gold chip, RAW 264.7 cells injected at 5k cells/mL.
Experiment [2] shares this target. The experiment is described as follows: SPR (BI-2000), Fab'-covered NPs on a carboxydextran gold chip, RAW 264.7 cells injected at 10k cells/mL.
For experiment [3] the target is unchanged. The experiment is described as follows: cell-based or functional assay.
The target is the same in experiment [4]. The experiment is described as follows: SPR (BI-2000), Fab'-covered NPs on a carboxydextran gold chip, RAW 264.7 cells injected at 2.5k cells/mL.
Experiment [5] shares this target. The experiment is described as follows: SPR (BI-2000), Fab'-covered NPs on a carboxydextran gold chip, RAW 264.7 cells injected at 7.5k cells/mL.
For experiment [6] the target is unchanged. The experiment is described as follows: SPR, antibody-covered NPs coated on a gold chip, Raw 264.7 cells injected. A general note: Surface plasmon resonance follows binding to a sensor surface in real time, without labels.

UniProt Q61549, sequence (Q61549 28-931): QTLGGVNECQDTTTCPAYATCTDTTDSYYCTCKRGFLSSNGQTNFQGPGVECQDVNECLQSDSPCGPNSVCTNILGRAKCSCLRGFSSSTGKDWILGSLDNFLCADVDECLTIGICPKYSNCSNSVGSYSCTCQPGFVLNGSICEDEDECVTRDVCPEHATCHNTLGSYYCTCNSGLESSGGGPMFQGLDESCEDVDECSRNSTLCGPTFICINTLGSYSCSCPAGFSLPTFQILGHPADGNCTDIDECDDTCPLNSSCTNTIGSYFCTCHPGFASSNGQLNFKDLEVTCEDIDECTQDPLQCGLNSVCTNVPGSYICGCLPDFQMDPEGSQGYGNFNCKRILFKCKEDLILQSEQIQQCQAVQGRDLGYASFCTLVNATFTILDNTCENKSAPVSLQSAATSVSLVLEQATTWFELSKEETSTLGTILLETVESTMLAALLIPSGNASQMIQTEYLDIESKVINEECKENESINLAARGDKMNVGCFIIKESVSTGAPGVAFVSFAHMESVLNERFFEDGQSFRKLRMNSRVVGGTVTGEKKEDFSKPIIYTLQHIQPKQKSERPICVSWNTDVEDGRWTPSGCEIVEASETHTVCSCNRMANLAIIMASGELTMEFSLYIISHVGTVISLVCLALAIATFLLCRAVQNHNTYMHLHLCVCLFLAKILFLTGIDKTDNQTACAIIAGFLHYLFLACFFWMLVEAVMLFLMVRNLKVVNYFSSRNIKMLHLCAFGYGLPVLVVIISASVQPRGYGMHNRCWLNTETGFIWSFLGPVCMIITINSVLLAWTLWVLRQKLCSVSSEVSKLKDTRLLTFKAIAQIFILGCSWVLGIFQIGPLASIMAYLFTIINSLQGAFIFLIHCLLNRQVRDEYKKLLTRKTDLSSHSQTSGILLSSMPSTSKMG

As to “Fab' fragment of the F4/80 antibody covalently attached to PLA-PEG nanoparticles”, the resonance angle deviation came out at 17 mDeg in experiment [1], 42 mDeg in experiment [2], 13 mDeg in experiment [4] and 33 mDeg in experiment [5]. The same substance yielded an average fluorescent intensity per unit of surface area of RAW 264.7 cells exposed to NPs loaded with FITC-tagged siRNA (15 minutes, 500 ug/mL); non-coated NPs gave 10279 AU/um^2 in experiment [3] of 51300 AU/µm^2. For the same substance, the percent of colonic MPs (CD11c(-)CD11b(+)F4/80(+)) with positive FITC signals by flow cytometry after gavage of DSS-treated mice with NPs loaded with FITC-tagged siRNA; non-coated NPs gave 19% in experiment [3] was determined as 28%.

Regarding “mouse F4/80 antibody grafted onto maleimide-polyethyleneglycol-poly(lactic acid) nanoparticles”, the binding coefficient in experiment [6] worked out at 50.
